The chains are these.
B1: 373_E04 (antibody, V domains shown)
VH: EVQLLESGGGLVQPGGSLRLSCAASGFTFDSYSMNWVRQAPGKGLEWVAGINYNGGYTSYADSVKGRFTISRDNSKNTLYLQMNSLRAEDTAVYYCARSATWHDTHLDYWGQGTLVTVSS
VL: DIQMTQSPSSLSASVGDRVTITCRASQSILTYVNWYQQKPGKAPKLLIYAATSRASGVPSRFSGSGSGTDFTLTISSLQPEDFATYYCQQSYNSPLTFGGGTKVEIK
notes: VH/VL only
B2: 374_C05 (antibody, V domains shown)
VH: B1 VH with G55S, T58K
VL: B1 VL with L30I, T31R, V33L, L47V, N93D, S94N
notes: VH/VL only
B3: 374_A11 (antibody, V domains shown)
VH: B1 VH with D30S, S31D, G50N, G55S, T58K, S59G
VL: B1 VL with T31S, L47V, N93S
notes: VH/VL only
B4: 373_F03 (antibody, V domains shown)
VH: B1 VH with G50N, G55S, S59G
VL: B1 VL with A55H, N93D
notes: VH/VL only
B5: 374_C02 (antibody, V domains shown)
VH: B1 VH with A49S, S59G
VL: B1 VL with T31S, V33L, A55H, N93D
notes: VH/VL only
B6: 373_E06 (antibody, V domains shown)
VH: B1 VH with G55S, T58K
VL: B1 VL with T31R, V33L, R54L, A55H, N93D, S94N
notes: VH/VL only
B7: 374_C04 (antibody, V domains shown)
VH: B1 VH with D30S, G55S, T58K
VL: B1 VL with V33L, T52S, R54L, A55Q, N93E, S94L
notes: VH/VL only
B8: 374_B09 (antibody, V domains shown)
VH: B1 VH with D30S, A49S, T58K
VL: B1 VL with L30V, T31R, V33L, L47V, R54L, N93E, S94L
notes: VH/VL only
B9: 373_H06 (antibody, V domains shown)
VH: B1 VH with D30S, S33G, N35H
VL: B1 VL with L30I, T31S, R54L, N93D, S94L
notes: VH/VL only
B10: 374_C08 (antibody, V domains shown)
VH: B1 VH with S33G, A49S, G55S, T58K, H106A
VL: B1 VL with T31S, A51V, N93D
notes: VH/VL only
B11: 373_H10 (antibody, V domains shown)
VH: B1 VH with D30S, S59G
VL: B1 VL with T31S, N93S, S94L
notes: VH/VL only
B12: 373_G05 (antibody, V domains shown)
VH: B1 VH with D30S
VL: B1 VL with T31S, V33L, R54L, N93E, S94L
notes: VH/VL only

Numbering of substitutions follows the chain as printed.
Also: test concentration or dose not given here.

In one test the target is mouse ACVR2A (mouse, UniProt P27038 20-135, limits assumed). As to the kind of experiment: ELISA. The method in brief: (§1)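 ELISA measured binding of ACVR2A-specific monoclonal antibodies to human and mouse ACVR2A. Biotinylated goat anti-human kappa light chain served as positive control and human Fc as negative control.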
Chain of mouse ACVR2A (P27038 20-135 limits assumed): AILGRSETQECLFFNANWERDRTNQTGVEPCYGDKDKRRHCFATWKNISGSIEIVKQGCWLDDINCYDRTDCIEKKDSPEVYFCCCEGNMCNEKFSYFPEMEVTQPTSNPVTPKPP
(An ELISA detects its analyte on a solid surface through an enzyme-linked reagent.)
As to B1, the optical density is 3.55 OD.

B2 gave an optical density of 3.69 OD.

In the case of B3, the optical density amounted to 3.72 OD.

Regarding B4, the optical density stood at 3.6 OD.

As to B5, the optical density came to 3.64 OD.

The molecule B6 gave an optical density of 3.64 OD.

B7 gave an optical density of 3.74 OD.

With B8, the optical density turned out to be 3.65 OD.

As to B9, the optical density turned out to be 3.15 OD.

In turn, B10 yielded an optical density of 3.42 OD.

The molecule B11 gave an optical density of 3.25 OD.

B12 registered an optical density of 3.62 OD.

For the next test, the target named is human ACVR2A (human, UniProt P27037 20-135, limits assumed). As to the kind of experiment: ELISA. The method in brief: as §1
Chain of human ACVR2A (P27037 20-135 limits assumed): as the sequence (P27038 20-135 limits assumed) above, with R20K, I73V counted along it
In the case of B1, the optical density turned out to be 3.56 OD.

On to B2, for which the optical density is 3.7 OD.

B3: the optical density amounted to 3.65 OD.

B4: the optical density is 3.65 OD.

With B5, the optical density is 3.68 OD.

Consider B6, for which the optical density is 3.71 OD.

For the molecule B7, the optical density was 3.74 OD.

With B8, the optical density turned out to be 3.62 OD.

B9 displayed an optical density of 3 OD.

Take B10: the optical density was determined as 3.29 OD.

For B11, the optical density worked out at 3.24 OD.

As for B12, the optical density is 3.61 OD.

Another test concerns the target T1, biotinylated goat anti-human kappa light chain.
T1 construct: Positive control of the ELISA
The experiment in a line: ELISA; positive control. In outline: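 mAb binding by ELISA; antigens: hu ACVR2A, mu ACVR2A; pos ctrl biotinylated goat anti-hu kappa LC; neg ctrl hu Fc.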
As for B1, the optical density was 3.3 OD.

Regarding B2, the optical density was determined as 3.18 OD.

In turn, B3 showed an optical density of 2.81 OD.

Consider B4, for which the optical density was found to be 3.21 OD.

Molecule B5 showed an optical density of 3.06 OD.

For the molecule B6, the optical density is 3.22 OD.

As for B7, the optical density was determined as 3.17 OD.

Take B8: the optical density is 3.19 OD.

Regarding B9, the optical density was 3.3 OD.

As for B10, the optical density was determined as 3.18 OD.

B11: the optical density was 3.19 OD.

In turn, B12 gave an optical density of 3.22 OD.

The values are drawn from US20210380703A1 (RIGEL PHARMACEUTICALS, published 2021).
